In the supplement of paper PMC11246515:
± gives the standard deviation of the averaged measurements.

Assay: total protein half-life in vivo (active degradation + dilution); higher = more stable protein
[1] = E. coli NCM3722 delta-clpP delta-lon delta-hslV, growth: N-lim chemostat, doubling time 6 h
[2] = E. coli NCM3722 delta-clpP, growth: N-lim chemostat, doubling time 6 h
[3] = E. coli NCM3722 delta-hslV, growth: N-lim chemostat, doubling time 6 h
[4] = E. coli NCM3722 delta-smpB, growth: N-lim chemostat, doubling time 6 h
[5] = wild type E. coli NCM3722, growth: C-lim chemostat, doubling time 3 h
[6] = wild type E. coli NCM3722, growth: C-lim chemostat, doubling time 6 h
[7] = wild type E. coli NCM3722, growth: C-lim chemostat, doubling time 12 h
[8] = wild type E. coli NCM3722, growth: N-lim chemostat, doubling time 6 h
[9] = wild type E. coli NCM3722, growth: N-lim chemostat, doubling time 12 h
[10] = wild type E. coli NCM3722, growth: P-lim chemostat, doubling time 6 h
[11] = wild type E. coli NCM3722, growth: P-lim chemostat, doubling time 12 h
[12] = E. coli NCM3722 delta-lon, growth: N-lim chemostat, doubling time 6 h

Sequence | total protein half-life in vivo [1] [h] | total protein half-life in vivo [2] [h] | total protein half-life in vivo [3] [h] | total protein half-life in vivo [4] [h] | total protein half-life in vivo [5] [h] | total protein half-life in vivo [6] [h] | total protein half-life in vivo [7] [h] | total protein half-life in vivo [8] [h] | total protein half-life in vivo [9] [h] | total protein half-life in vivo [10] [h] | total protein half-life in vivo [11] [h] | total protein half-life in vivo [12] [h]
MKPLHYTASALALGLALMGNAQAVTTIPFWHSMEGELGKEVDSLAQRFNAENPDYKIVPTYKGNYEQNLSAGIAAFRTGNAPAILQVYEVGTATMMASKAIKPVYDVFKEAGIQFDESQFVPTVSGYYSDSKTGHLLSQPFNSSTPVLYYNKDAFKKAGLDPEQPPKTWQDLADYAAKLKASGMKCGYASGWQGWIQLENFSAWNGLPFASKNNGFDGTDAVLEFNKPEQVKHIAMLEEMNKKGDFSYVGRKDESTEKFYNGDCAMTTASSGSLANIREYAKFNYGVGMMPYDADAKDAPQNAIIGGASLWVMQGKDKETYTGVAKFLDFLAKPENAAEWHQKTGYLPITKAAYDLTREQGFYEKNPGADTATRQMLNKPPLPFTKGLRLGNMPQIRVIVDEELESVWTGKKTPQQALDTAVERGNQLLRRFEKSTKS [P0AG80] | 4.8 ± 0.06 | 5.43 ± 0.54 | 7.41 ± 0.31 | 6.14 ± 0.2 | 3.37 ± 0.17 | 6.26 ± 0.076 | 12.9 ± 0.73 | 6.47 ± 0.47 | 12.7 ± 0.98 | 6.14 ± 0.21 | 12.99 ± 0.1 | 
MKPLLDVLMILDALEKEGSFAAASAKLYKTPSALSYTVHKLESDLNIQLLDRSGHRAKFTRTGKMLLEKGREVLHTVRELEKQAIKLHEGWENELVIGVDDTFPFSLLAPLIEAFYQHHSVTRLKFINGVLGGSWDALTQGRADIIVGAMHEPPSSSEFGFSRLGDLEQVFAVAPHHPLALEEEPLNRRIIKRYRAIVVGDTAQAGASTASQLLDEQEAITVFDFKTKLELQISGLGCGYLPRYLAQRFLDSGALIEKKVVAQTLFEPVWIGWNEQTAGLASGWWRDEILANSAIAGVYAKSDDGKSAI | 5.91 ± 0.24 |  |  |  |  |  |  |  |  |  |  | 
MKPLSSPLQQYWQTVVERLPEPLAEESLSAQAKSVLTFSDFVQDSVIAHPEWLTELESQPPQADEWQHYAAWLQEALCNVSDEAGLMRELRLFRRRIMVRIAWAQTLALVTEESILQQLSYLAETLIVAARDWLYDACCREWGTPCNAQGEAQPLLILGMGKLGGGELNFSSDIDLIFAWPEHGCTQGGRRELDNAQFFTRMGQRLIKVLDQPTQDGFVYRVDMRLRPFGESGPLVLSFAALEDYYQEQGRDWERYAMVKARIMGDSEGVYANELRAMLRPFVFRRYIDFSVIQSLRNMKGMIAREVRRRGLTDNIKLGAGGIREIEFIVQVFQLIRGGREPSLQSRSLLPTLSAIAELHLLSENDAEQLRVAYLFLRRLENLLQSINDEQTQTLPSDELNRARLAWAMDFADWPQLTGALTAHMTNVRRVFNELIGDDESETQEESLSEQWRELWQDALQEDDTTPVLAHLSEDDRKQVLTLIADFRKELDKRTIGPRGRQVLDHLMPHLLSDVCAREDAAVTLSRITALLVGIVTRTTYLELLSEFPAALKHLISLCAASPMIASQLARYPLLLDELLDPNTLYQPTATDAYRDELRQYLLRVPEDDEEQQLEALRQFKQAQLLRIAAADIAGTLPVMKVSDHLTWLAEAMIDAVVQQAWVQMVARYGKPNHLNEREGRGFAVVGYGKLGGWELGYSSDLDLIFLHDCPMDAMTDGEREIDGRQFYLRLAQRIMHLFSTRTSSGILYEVDARLRPSGAAGMLVTSAEAFADYQKNEAWTWEHQALVRARVVYGDPQLTAHFDAVRREIMTLPREGKTLQTEVREMREKMRAHLGNKHRDRFDIKADEGGITDIEFITQYLVLRYAHEKPKLTRWSDNVRILELLAQNDIMEEQEAMALTRAYTTLRDELHHLALQELPGHVSEDCFTAERELVRASWQKWLVEE | 4.99 ± 0.16 | 4.75 ± 0.75 | 4.215 ± 0.0047 | 4.64 ± 0.27 | 3.414 ± 0.027 | 6.65 ± 1.2 | 12.9 ± 0.85 | 4.22 ± 0.24 | 7.85 ± 0.1 | 6.33 ± 0.28 | 13.3 ± 1.3 | 5.2 ± 0.75
MKPMHIAMALLSAAMFFVLAGVFMGVQLELDGTKLVVDTASDVRWQWVFIGTAVVFFFQLLRPAFQKGLKSVSGPKFILPAIDGSTVKQKLFLVALLVLAVAWPFMVSRGTVDIATLTMIYIILGLGLNVVVGLSGLLVLGYGGFYAIGAYTFALLNHYYGLGFWTCLPIAGLMAAAAGFLLGFPVLRLRGDYLAIVTLGFGEIVRILLLNNTEITGGPNGISQIPKPTLFGLEFSRTAREGGWDTFSNFFGLKYDPSDRVIFLYLVALLLVVLSLFVINRLLRMPLGRAWEALREDEIACRSLGLSPRRIKLTAFTISAAFAGFAGTLFAARQGFVSPESFTFAESAFVLAIVVLGGMGSQFAVILAAILLVVSRELMRDFNEYSMLMLGGLMVLMMIWRPQGLLPMTRPQLKLKNGAAKGEQA | 5.59 ± 2.4 | 6.22 | 5.84 ± 0.34 | 5.92 ± 1.1 |  | 5.79 ± 0.64 | 10.7 ± 1.2 |  | 12.2 | 6.09 ± 0.58 | 10.7 ± 0.3 | 5.83 ± 1.7
MKPTTLLLIFTFFAMPGIVYAESPFSSLQSAKEKTTVLQDLRKICTPQASLSDEAWEKLMLSDENNKQHIREAIVAMERNNQSNYWEALGKVECPDM [Q2M7X4] | 4.53 |  |  |  |  |  |  |  |  |  |  | 
MKPVKPPRINGRVPVLSAQEAVNYIPDEATLCVLGAGGGILEATTLITALADKYKQTQTPRNLSIISPTGLGDRADRGISPLAQEGLVKWALCGHWGQSPRISELAEQNKIIAYNYPQGVLTQTLRAAAAHQPGIISDIGIGTFVDPRQQGGKLNEVTKEDLIKLVEFDNKEYLYYKAIAPDIAFIRATTCDSEGYATFEDEVMYLDALVIAQAVHNNGGIVMMQVQKMVKKATLHPKSVRIPGYLVDIVVVDPDQTQLYGGAPVNRFISGDFTLDDSTKLSLPLNQRKLVARRALFEMRKGAVGNVGVGIADGIGLVAREEGCADDFILTVETGPIGGITSQGIAFGANVNTRAILDMTSQFDFYHGGGLDVCYLSFAEVDQHGNVGVHKFNGKIMGTGGFIDISATSKKIIFCGTLTAGSLKTEITDGKLNIVQEGRVKKFIRELPEITFSGKIALERGLDVRYITERAVFTLKEDGLHLIEIAPGVDLQKDILDKMDFTPVISPELKLMDERLFIDAAMGFVLPEAAH | 5.68 ± 0.1 | 4.03 ± 0.058 | 3.94 ± 0.05 | 3.728 ± 0.031 | 2.75 ± 0.29 | 5.2 ± 0.61 | 10.7 ± 1.1 | 3.81 ± 0.14 | 6.72 ± 0.91 | 6.39 ± 0.56 | 11.1 ± 0.4 | 4.17 ± 0.1
MKPVTLYDVAEYAGVSYQTVSRVVNQASHVSAKTREKVEAAMAELNYIPNRVAQQLAGKQSLLIGVATSSLALHAPSQIVAAIKSRADQLGASVVVSMVERSGVEACKAAVHNLLAQRVSGLIINYPLDDQDAIAVEAACTNVPALFLDVSDQTPINSIIFSHEDGTRLGVEHLVALGHQQIALLAGPLSSVSARLRLAGWHKYLTRNQIQPIAEREGDWSAMSGFQQTMQMLNEGIVPTAMLVANDQMALGAMRAITESGLRVGADISVVGYDDTEDSSCYIPPLTTIKQDFRLLGQTSVDRLLQLSQGQAVKGNQLLPVSLVKRKTTLAPNTQTASPRALADSLMQLARQVSRLESGQ | 5.83 ± 0.72 | 5.64 ± 0.41 | 4.55 ± 0.067 | 4.13 ± 0.042 | 2.96 ± 0.24 | 5.81 ± 0.66 | 7.63 ± 1.8 | 5.01 ± 0.34 | 7.759 ± 0.077 | 4.77 ± 0.2 | 10.5 ± 0.49 | 4.85 ± 0.15
